Experiments:
[1] = target: Dip (gp37, degradosome interacting protein) of giant phage φKZ, His-tagged (Pseudomonas phage φKZ); experiment: ELISA; 350 nM Dip (C-terminal his-tag) held on Ni-NTA HisSorb strips, increasing amounts of RNA degradosome, detected by anti-Strep-tag II-HRP
[2] = target: Dip (gp37, degradosome interacting protein) of giant phage φKZ, His-tagged (Pseudomonas phage φKZ); experiment: AUC; analytical ultracentrifugation of Dip in solution; data not shown

Substance	Dip protomers per degradosome protomer at saturation of the signal (Dip protomers per degradosome protomer) [1]	stoichiometry N [2]
RNA degradosome of P. aeruginosa, purified (C-terminal Strep-tag II on RNase E) (from UniProt Q9HZM8 1-1057) (complex)	10	
Dip (gp37, degradosome interacting protein) of giant phage φKZ, His-tagged (natural protein)		2

— paper PMC4980113
